Molecular target: T1, Rae1–Nup98_(GLEBS) complex (UniProt P78406 1-368; P52948 157-213)
T1 construct: Deca-histidine tags are called non-cleavable; also called Rae1–Nup98 complex; Rae1–Nup98 heterodimer; not shown: His10, C-terminal, kept; His10, N-terminal, kept
Assay: ITC
Conditions: both partners purified

T1 sequence (P78406 whole entry, chain 1 of 2): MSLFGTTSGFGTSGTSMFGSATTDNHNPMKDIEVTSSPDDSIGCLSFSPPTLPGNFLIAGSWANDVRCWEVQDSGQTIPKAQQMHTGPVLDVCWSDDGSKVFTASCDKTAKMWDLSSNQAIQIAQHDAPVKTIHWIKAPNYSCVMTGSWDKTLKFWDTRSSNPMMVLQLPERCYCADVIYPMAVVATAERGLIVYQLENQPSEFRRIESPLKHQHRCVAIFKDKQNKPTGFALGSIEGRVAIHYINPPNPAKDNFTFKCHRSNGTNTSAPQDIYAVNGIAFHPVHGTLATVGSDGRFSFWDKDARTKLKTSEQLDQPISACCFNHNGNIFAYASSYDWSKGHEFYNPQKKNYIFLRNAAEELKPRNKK
T1 sequence (P52948 157-213, chain 2 of 2): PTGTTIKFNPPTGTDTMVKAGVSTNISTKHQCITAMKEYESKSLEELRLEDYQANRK

Q: SKSLTENKYSQLDEEQPMEID (also called SARS-CoV-2 Orf6 peptide) [SARS-CoV-2 Orf6CTT (21-mer peptide, residues 41–61 of SARS-CoV-2 Orf6)] was tested. Which Kd did it give?
A: 142 nM

Q: And the “stoichiometry N” value?
A: 1

Reference: PMC8790125, “Molecular Mechanism of SARS-CoVs Orf6 Targeting the Rae1–Nup98 Complex to Compete With mRNA Nuclear Export” (Frontiers in Molecular Biosciences, 2021)
